From patent US20240424125A1 (Zymeworks, published 2024)

Columns and labels:
[1] = biological target: T1, recombinant His-tagged human FRα (ACROBiosystems) (human, UniProt P15328 25-233); assay: SPR (Biacore T200): hFRα amine-coupled to CM5 chip at medium-low antigen density, bivalent FSA injected, 1:1 Langmuir fit, mean of n=2
T1 construct: also called hFRα; hFRα antigen; not shown: His tag
Description: (§1) CM5 Series S sensor chip, Biacore™ amine coupling kit (NHS, EDC and 1 M ethanolamine), and 10 mM sodium acetate buffers were purchased from GE Healthcare Life Science (Mississauga, ON, Canada). PBS running buffer with 0.05% Tween20 (PBST) was purchased from Teknova Inc. (Hollister, CA). Recombinant human FRα was purchased from ACRObiosystems (Newark, DE).
(§2) Screening of the variants for binding to hFRα antigen was conducted in two steps: capture of hFRα onto surface, followed by injection of three to five concentrations of variant. The hFRα surface was prepared on a CM5 Series S sensor chip by standard amine coupling methods as described by the manufacturer (GE Healthcare Life Science, Mississauga, ON, Canada). The immobilization of the hFRα was performed using Biacore™ T200 immobilization wizard with an amine coupling method aiming for resonance units (RUs) ranging from 5 to 200 RUs. Using multi-cycle kinetics, three to five concentrations of a two-fold dilution series of samples starting at 300 nM with a blank buffer control were injected at 50 uL/min for 180s with a 600s dissociation phase, resulting in a set of sensorgrams with a buffer blank reference. The hFRα surface was regenerated to prepare for the next injection cycle by one pulse of 10 mM glycine/HCl pH 1.5 for 30s at 30 uL/min. Blank-subtracted sensorgrams were analyzed using Biacore™ T200 Evaluation Software v3.0. The blank-subtracted sensorgrams were then fit to the 1:1 Langmuir binding model.

human FRα on cells [2] = biological target: T2, human FRα on cells (human, UniProt P15328 25-234); assay: apparent Kd, flow cytometry on HEC-1-A cells (endogenous FRα), 24 h at 4°C
T2 construct: Transiently expressed on HEK293-6e, CHO-S or HEK293 microarray cells, or endogenous on JEG-3, HEC-1-A, IGROV-1, OVCAR-3, H2110, KB-HeLa and T-47D cells; also called human folate receptor alpha; FOLR1
Description: Briefly, cells were seeded at 50,000 cells/well in V-bottom 96-well plates and treated with antibody for 24 hours at 4° C. to prevent internalization. […] Following incubation and washing, fluorescence was detected by flow cytometry on a BD LSRFortessa™ Cell Analyzer (BD Biosciences, Franklin Lake, NJ) with 1,000 minimum events collected per well. AF647/APC-A GeoMean (fluorescence signal geometric mean, proportional to anti-Human AF647 binding) in live cell population was plotted using GraphPad Prism Version 9 (GraphPad Software, San Diego, CA).

[3] = biological target: T1, recombinant His-tagged human FRα …; assay: BLI (Octet RED96): antibody loaded on anti-human IgG Fc capture biosensors, His-tagged hFRα in solution. Six traces with fit lines plateau between about 0.17 and 0.5 nm during 0-400 s association and decay almost to baseline by 900 s. The legend prints the same globally fitted KD for all six traces (single run; the text prints only the mean of n=2).
Description: The assay buffer used was KB buffer (kinetics buffer, composed of PBS pH 7.4, 0.1% BSA, 0.02% Tween 20, 0.05% sodium azide) supplemented with 0.06% Tween 20 and in some instances also with 1% BSA. The experiment was conducted at 30° C. with a shake speed of 1000 rpm.
Data analysis was performed using Data Analysis Software 9.0 (ForteBio, Fremont CA). The reference-subtracted binding curves were globally fitted to the 1:1 interaction model to generate the binding kinetic parameters kₒₙ, koff, and the dissociation constant KD.

[4] = biological target: T3, cynomolgus monkey FRα on cells (cynomolgus monkey, UniProt P15328 29-234 (human entry)); assay: apparent Kd, flow cytometry, CHO-S cells transiently expressing cynomolgus monkey FRα, 24 h at 4°C
T3 construct: Transiently expressed on CHO-S cells; also called Cyno FRα; cynomolgus FRα
Description: (§3) Briefly, CHO-S cells were transfected for −24 hours to transiently express human or cynomolgus monkey FRα, 1 ug DNA per 1 million cells. Following transfection, cells were seeded at 50,000 cells/well in V-bottom 96-well plates and treated with antibody for 24 hours at 4° C. to prevent internalization. […] Following incubation and washing, fluorescence was detected by flow cytometry on a BD LSRFortessa™ Cell Analyzer (BD Biosciences, Franklin Lake, NJ).

FOLR2 on HEK293-6e cells = biological target: T4, FOLR2 on HEK293-6e cells (human, UniProt P14207 17-230); assay: flow cytometry on transfected HEK293-6e cells
T4 construct: whole, on cells; also called human folate receptor beta (FOLR2)
Description: (§4) FRα, FOLR2 and FOLR4 binding was assessed through flow cytometry using HEK293 transfected cells. FOLR3 binding was assessed through ELISA as FOLR3 is a soluble protein. Control anti-FOLR2 (mouse anti-human FOLR2; Nordic BioSite AB, Taby, Sweden; Cat. No. AFC-4544-2), anti-FOLR3 (mouse anti-human FOLR3; LS Bio, Seattle, WA; Cat. No. LS-C125621) and anti-FOLR4 (mouse anti-His DyLight™ 650; Novus Biologicals, Littleton, CO; Cat. No. NBP2-31055C) antibodies were included in these experiments.
(§5) FRα, FOLR2 and FOLR4 binding: Briefly, HEK293-6e cells were transfected for ˜24 hours to transiently express human FRα (Cat. No. 13420), FOLR2 (Cat. No. 13481) and FOLR4 (Cat. No. 13483) (all from GenScript Biotech, Piscataway, NJ), 1 ug DNA per 1 million cells. Following transfection, 50,000 cells were seeded in V-bottom 96-well plates and incubated with 50 nM primary antibody for 45 min under standard culturing conditions. […] Following incubation and washing, fluorescence was detected by flow cytometry on a BD LSRFortessa™ Cell Analyzer (BD Biosciences, Franklin Lake, NJ) with 1,000 minimum events collected per well.

FOLR4 on HEK293-6e cells = biological target: T5, FOLR4 on HEK293-6e cells (human, UniProt A6ND01 20-228); assay: flow cytometry on transfected HEK293-6e cells
T5 construct: whole, on cells; also called human folate receptor delta (FOLR4)
Description: as §4, §5

human FRα on cells [5] = biological target: T2, human FRα on cells; assay: apparent Kd, flow cytometry, CHO-S cells transiently expressing human FRα (same experiment as Table 15.1, more digits)
Description: as §3

[6] = biological target: T1, recombinant His-tagged human FRα …; assay: SPR (Biacore T200): hFRα amine-coupled to CM5 chip at high antigen density, bivalent FSA injected, 1:1 Langmuir fit, mean of n=2
Description: as §1, §2

T1 sequence (P15328 25-233 limits assumed): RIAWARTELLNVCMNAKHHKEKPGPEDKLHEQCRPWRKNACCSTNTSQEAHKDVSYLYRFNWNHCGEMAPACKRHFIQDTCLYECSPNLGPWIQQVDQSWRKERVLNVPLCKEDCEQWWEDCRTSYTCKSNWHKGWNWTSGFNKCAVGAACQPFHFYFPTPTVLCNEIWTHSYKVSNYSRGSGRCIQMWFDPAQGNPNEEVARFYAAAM
T2 sequence (P15328 25-234 limits assumed): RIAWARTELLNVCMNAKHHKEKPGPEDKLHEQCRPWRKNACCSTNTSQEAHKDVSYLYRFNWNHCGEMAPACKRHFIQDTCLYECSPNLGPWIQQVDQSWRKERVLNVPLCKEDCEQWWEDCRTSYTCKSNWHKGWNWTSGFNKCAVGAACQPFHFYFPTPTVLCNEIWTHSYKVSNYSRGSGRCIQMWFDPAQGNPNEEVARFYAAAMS
T4 sequence (P14207 17-230): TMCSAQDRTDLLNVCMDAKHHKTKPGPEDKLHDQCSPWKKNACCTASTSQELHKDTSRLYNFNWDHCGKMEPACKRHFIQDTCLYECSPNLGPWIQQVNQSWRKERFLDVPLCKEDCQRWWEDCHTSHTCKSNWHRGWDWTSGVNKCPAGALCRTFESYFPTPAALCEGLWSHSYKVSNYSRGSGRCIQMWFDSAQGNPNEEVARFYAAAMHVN
T3 sequence (P15328 other isoform, or with tags, fused parts or gaps limits assumed): as the sequence (P15328 25-234 limits assumed) above, with I2T, A3T, W4R, R37K, A146P, H171Y counted along it
T5 sequence (A6ND01 20-228): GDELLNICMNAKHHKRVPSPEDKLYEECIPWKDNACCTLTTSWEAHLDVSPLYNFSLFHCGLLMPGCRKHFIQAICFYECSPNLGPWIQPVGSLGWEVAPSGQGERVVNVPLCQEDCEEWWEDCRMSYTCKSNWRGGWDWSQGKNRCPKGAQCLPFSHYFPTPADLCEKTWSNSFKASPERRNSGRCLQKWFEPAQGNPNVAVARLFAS

Kd [1]: 2.29 nM
Kd (human FRα on cells [2]): 0.05 nM
Kd [3]: 20.6 nM
Kd [4]: 0.12 nM
binding result (FOLR2 on HEK293-6e cells): no binding (tested: 50 nM)
binding result (FOLR4 on HEK293-6e cells): no binding (tested: 50 nM)
Kd (human FRα on cells [5]): 0.0839 nM
Kd [6]: 0.278 nM
B1: v23924 (antibody, human IgG1, kappa, V domains shown)
VH: QSVKESEGGLFKPTDTLTLTCTVSGFSLSSYGVSWVRQAPGNGLEWIGAVNSGGSAYYANWAKSRSTITRNTNLFTVTLKMTSLAVADTATYFCARSGSGYPMDYLAIWGPGTLVTVSS
VL: AYDMTQTPASVEVAVGGTVTIKCQASQSIGDWLAWYQQKPGQPPRLLIYEASTLASGVPSRFSGSGSGTQFTLTISGVECADAATYYCQQGYGRSNVDNIFGGGTEVVVKR
notes: Rabbit-human chimeric full-size antibody, human IgG1/kappa, HomoFc; also called variant v23924; parental chimeric anti-FRα antibody
